Assay results published in the DeepSol protein solubility set.

experiment: soluble on expression in E. coli; label from the status in PepcDB or PDB records

Sequence	soluble on expression in E. coli
MSLQIIEPDNLIKEGDLRSIRAKTLQSARGIISDRNGEALAVSVPVEAVWADPVAIYKEGGLVEKDRWYALADVLGLDRQEMMKKIEDNRSRRFIYLQRQVSPAMAKYIRELKLAGIGLKEESRRYYPAGEVSAHLVGVTGIDGHGLEGVERSFDSTLTGESGKSVTRKDKFGRVVENIALEEREEGKPIQLTIDQRLQAIAFRAVKQAMADYRATSASAVMLDVKTGAVLAMVNAPSYNPNNRNDWQSFKMRNRVITDAFEPGSTVKPFVVLAALANGIADKNTIIDTGDGTMQIGGSRVRDTSKVGKADLTLILKKSSNIGVAKLALEMPLEALLGMYSSVGLGEMSGLDLVGETIGIFPNRRRWSQFEIATLSFGYGLAITPIQLAHAYATLGNHGKYQPIHIIKGDQHGETRQVVDPKYVNQVLEMLETVTQPGGTATRAAVPGYRIAAKSGTSRKAIAGGYSDEYFAYTAGVAPVSDPRISLVVMVNEPQGDSYYGGAVAGPVFSEIMKGALQILNIAPDENRFQNEGHHHHHH	soluble
MSHHKLEVKNLSFTYPDGHKAIDGISFTVRHGESVGIVGENGAGKSTLLLVLMGVLFPNQGEVRVGDVRVTKKTLPLIRQRLGMVFQNPDDQLFMTTVYDDVAFGPRNYKLDEKEVEDRVMKSLDMVGISHLKDKAPYKLSGGEKRAAAIATVLSMQPDILVMDEPTSSLDPRSRRRVMELLKNFEHTKIITSHDLDMVLEICERTIVLKQGKVAADGLTSEILADKELMNTCGLEVPLALQGCPVCGEKKKYV	soluble
MGSDKIHHHHHHMDSNIDVEILSILSEASAPVGAKIIADSLKDRGYDIGERAVRYHLKVLDENSLTKKLGYSGREITEKGIEELEKANISFRIGSVFSQVIEKLYLSDFPSKVLINTAKFEGDYKTIKEMVLRSFEAGYSVGDYLNIKKKGNTVSVETLCSITFDNFLLKNGIIPTPEYGGIVKFEDYEPVNFEGVIDFKSSSIDPLVAFIMQGKTDVIGVIENGEGLVPANFRVIPKSSEKQFETILKKDMLNSVLAYGTENVLGMNLNPEQIGVVLVGGLTPLCVPHESGYTADISAATQLKDISSMEKKTKGFLEAKKKKGKFKVTPVLSKMLSKMQTINYDIEDKKGNVVVNTAKIPIEYKEEAINALKDSYENKLAISDRLKVECDDKFLNAYTICSLTVDGVFLKNKIPVIPYYGGILEVKADKKRFIEAIDYEGTSLDPHEVFFNKADGKNYILAGIRKVPMSASEKLIELNEKLGWNSIIEIGRPNNDICGVRVEKCMFGITTIGGTNPFANIRKNNIPVEMKTLHKSIDYSELTHYDDI	not soluble
MGSDKIHHHHHHMDIYRHAQVMMNAAQAAHDLVDHLSIQPRGVVKVSVPVDIAQNLLPKILPAFLKKYPEIRLQLIVSNRRVDVINEGIDIALRVRSKLDDDPSLVLRQFALIEQSLFASQAYLNEFGNIKSPDELSDHRILSLSEEHLDQQFILHGPDNQLKKVKVSPTIMGTNIYMLAQLASQNCGIALLPDTAAEDFVKSGQLVQILPDWKAAHGIFHAVYPSRRGLLPAVRVFIDYLVEHLSEHP	not soluble
RKLHAEELLRLAMAHLRNQGKPVRIVDIAAGHGRYILESLRGVEPLPESILLRDYSDINVRDGSLLIEQKDLEDIARFVKGDAFDRNDLATLDPKPTLAVVSGLYELFSSNQMVGDSLAGLAAAVEPGGYLVYTGQPWHPQLELIARALTSHREGQAWVMRRRSQSEMDQLVEAAGFRKITQRVDEWGIFTVSLAQRIQ	not soluble
LVSITDLQGRILYANDNFCAVSRYGREELVGQDHRIVNSGYHGKAYIRDMWRTISRGNIWQGEFCNRRKDGTRYWVDSTIVPLMDNAGKPRQYISIRRDITAQKEAEAQLARLKQAMDANSEMILLTDRAGRIIYANPALCRFSGMAEGELLGQSPSILDSPLADQETLAAMQEALQAGQPWSGRLLNRRRTGPAPHDAEDYWAEISTTPIHTDGNGLVGYVQIQHD	soluble
MHHHHHHSSGVDLGTENLYFQSMGFETLVVTSEDGITKIMFNRPKKKNAINTEMYHEIMRALKAASKDDSIITVLTGNGDYYSSGNDLTNFTDIPPGGVEEKAKNNAVLLREFVGCFIDFPKPLIAVVNGPAVGISVTLLGLFDAVYASDRATFHTPFSHLGQSPEGCSSYTFPKIMSPAKATEMLIFGKKLTAGEACAQGLVTEVFPDSTFQKEVWTRLKAFAKLPPNALRISKEVIRKREREKLHAVNAEECNVLQGRWLSDECTNAVVNFLSRKSKL	soluble
MKKLKVMTVFGTRPEAIKMAPLVLELKKYPEIDSYVTVTAQHRQMLDQVLDAFHIKPDFDLNIMKERQTLAEITSNALVRLDELFKDIKPDIVLVHGDTTTTFAGSLAAFYHQIAVGHVEAGLRTGNKYSPFPEELNRQMTGAIADLHFAPTGQAKDNLLKENKKADSIFVTGNTAIDALNTTVRDGYSHPVLDQVGEDKMILLTAHRRENLGEPMENMFKAIRRIVGEFEDVQVVYPVHLNPVVREAAHKHFGDSDRVHLIEPLEVIDFHNFAAKSHFILTDSGGVQEEAPSLGKPVLVLRDTTERPEGVEAGTLKLAGTDEENIYQLAKQLLTDPDEYKKMSQASNPYGDGEASRRIVEELLFHYGYRKEQPDSFTGKGSHHHHHH	soluble
MINIHRFVQNRFLRTRHAHPFGIVLDIDGVLFRGRNMLPRVKEAFSLITDKKGNFVVPTVFLTNGTNSTEKNKAAQLSEQLGFRVPADNVLMSHSPLRMFTDLHDKQVLVVGQKNARAIAKGIIFFRVGFKKVTTIDHLVKWFPHLDCTDFSRKLVDPKETEAARKRFRPIEAIVMLGEPLKWETSLQLMLDCVLTYGKMDTMVFPLIAGGRRPDHIPIVACNVDLVWMADVASQLPRIGHGTFIHILDSLYEKLTGQHLQFRATLGKPTEVSYLHAAHRIQRQAKAMKLEDVKYVYVIGDNPMSDVLGARLFDRYLRHGGVGRFDHLDLEAFDVNDGEKPRVRTRNVVERCISILVETGVHQDHVHINGMVKPISALIDNLSKGEQLKLQLPDFVEYDLHAAIRTILRRECYR	not soluble
MGSDKIHHHHHHMKKHKIGIYEKALPKNITWQERLSLAKACGFEFIEMSIDESNDRLSRLNWTKSERIALHQSIIQSGITIPSMCLSAHRRFPFGSKDKKIRQKSFEIMEKAIDLSVNLGIRTIQLAGYDVYYEKQDEETIKYFQEGIEFAVTLAASAQVTLAVEIMDTPFMSSISRWKKWDTIINSPWFTVYPDIGNLSAWNNNIEEELTLGIDKISAIHLKDTYPVTETSKGQFRDVPFGQGCVDFVHFFSLLKKLNYRGAFLIEMWTEKNEEPLLEIIQARKWIVQQMEKAGLLC	not soluble
MPPIPSRARVYAEVNPSRPREYWDYEAHMIEWGQIDDYQLVRKLGRGKYSEVFEGFKMSTDEKVVVKILKPVKKKKIKREIKILENLRGGTNIITLLDVVKDPISRTPALIFEHVNNSDFKQLYQTLSDYDIRYYLYELLKALDFCHSQGIMHRDVKPHNVMIDAEKRELRLIDWGLAEFYHPRQDYNVRVASRYFKGPELLVDYQCYDYSLDMWSLGCMLASMIFRKEPFFHGHDNYDQLVRIAKVLGTDELYEYIARYHIDLDPRFNDILGRHSRKRWERFIHAENQHLVTPEALDFLDKLLRYDHAERLTAQEAMGHEYFRPVVEAHARANGTEQADGQGASNSASSQSSDAKIDGA	not soluble
MDNVSNVRTGGCHCGAVRFEVTLSDGFDSIRRCTCSYCRMRGAVVAMAEMGGIKILQGEEVLTTYRFHTRAAQHFFCSRCGIYTHHQRRSNQNLYAVNVACLDGVSPFDFTEVPVMDGINHTNDTGQPTRRAGTLRFIASE	not soluble
MGSDKIHHHHHHMTENKLIIGTAPDSWGVWFADDPKQTPWERFLDEVAESGYKWIELGPYGYLPNNPARLAEELKQRDLKVTAGTVFTAFHRGLDEWETAWEPARKVAELTAAMGGEHIVVIPAMWRDDVTGEAVESGQLTEKAWSDLFAGHNRLGKTLLEDFGLKQQFHSHADSHVGAQEDIESLLAATDSKYLNLCLDTGHAEYCGASSLELIKNYPDRIGYLHLKQINPDILKKVNEENMTWAAANLAGVMTEPPNGLPDLRAVIEAVEALNRPIFGIVEQDMYPVAFDVPMPIAKRTRNYLLSCGSRTAVN	not soluble
MSLNTKLLILDDDIDILQMLKTVFIGEEMDIILESESEQALRFITTERPNVAIVDINLPRKSGLQVLQEAKKIDPGLSVIMTTGNKTTQNAIEAMKYGAYDYVTKPFDMNKLKSAVHKALECNLLSRKVRYTKDTKQLSEDEGHHHHHH	not soluble
MTPISGRCEMAEVTNIPNPGHTSSWYAASANVKSVRPTLEGALEADVCIIGGGFTGISAALELSERGYAVIVLEGVRVGFGASGRNGGQIVNGYSRDLETIARRYGHEKAVKLGEMSLEGGTIIRSRVAKYGIDCDLVDGGFFAAFTPKQIREMEAHKAHWEKHGHGGLEMVSEADVGQYVKTNRYAGGMIDRFGGHIHPLNLVQGEAAAAESLGARIFENSRVIAVEQGANPIVRTAMGSVKAKYVLVCGNAYLGTLLPEIGERMMPVSSQVMATEPLDADLIEALLPANYCVEDANYILDYYRRTSDNRLLYGGGIGYGGSDPADLTGVIRPNMLKTFPQLEKTKIEFAWSGNFALTLTRIPHMGRLSDNIYFSHGDSGHGVTTTHLLGKILGEAVAGHAERFDIWSSLPNYPFPGGKTFRVPLTMLGAWWYGLRDKLGLLEHHHHHH	not soluble
MNKEEQYLLFALSAPMEILNQGCKPAHDSPKMYTGIKEFELSSSWGINNRDDLIQTIYQMTDDGHANDLAGLYLTWHRSSPEEWKALIAGGSERGLIYTQFVAQTAMCCGEGGIKAWDYVRMGFLSRVGVLNKWLTEEESLWLQSRVYVRAHHYYHSWMHYFSAYSLGRLYWQSSQCEDNTSLREALTLYKYDSAGSRMFEELAAGSDRFYATLPWQPLTVQSECPVTLKDVSDL	soluble
GMARKRLIIEMGMGIDQHGQEPTIAASRAVRNAIAHNALPGVWEVAGLSHPNEMIIEVQVAVPYPEQVREEEVLAVLPFGRKTLTVESGGMIVQGRAIPELNDKNDEMLIAIAAVTVLIENE	soluble
MAGDPMIMVNLRIINFIGDIMKIRGICYRCGAEDELIDGLCPICYAQEHPLIEVPDRVEIEVCHMCGSYKRKIWQTPKSEEAFEILNEIAYYATKDAIKKKSVMVEVEIYPEVTQLPGGKRSKLIIPVHIVARGRLPGEKEDRTYEKDIEVHLRMVQCPRCSRFMSNYYEATLQVRAMNRYLTEEEREELDNFVREELAKRLKKDRMAFIAKFIPQKEGLDYQLGSVGAARNVAQRIKEKYGGKITETATLVGVDRDSGKELYRVTVSVRVPEYKVGDVVEYKDKYYLVTAITEDKVYMKSIDYKREKIGLAWHIAEKETKMAKKKDELDTATVIATTPTIMVMDDKSYEVYEFDNIGDVKIKEGDKVKIFKKEGVSYLVNKIEGKDKQLEHHHHHH	soluble
MSLGRFKTLLNQEDYLILHGALGTELEFLGYDVSGKLWSAKYLLENPSIIQTIHETYLRSGSDIVTTSSYQASYQGLCDYGLSQEEAEKMIALTVSLAKNAREKVWQELSEKEKQVRPYPLISGDVGPYAAYLADGSEYTGNYGQLDKEVLKDFHRSRIKILVDEGSDLLALETIPNFLEAQALVELLQEEFPSVEAYMSFTAQNGTTISDGTAIEEVAELIDKASQILALGINCSSPSVYSSLLKKIADITDKPLVTYPNSGEVYDGQHQMWTQSADISHTLLENTKIWHTFGAKVVGGCCRTRPNDIESLSRGLREEGHHHHHH	soluble
